From patent EP0696198B1

Assays:
Factor Xa [1] = assay: cell-based or functional assay
Factor Xa [2] = assay: modified prothrombinase complex assay (50 pM FXa, 1.35 µM prothrombin)
Factor Xa [3] = assay: reconstituted prothrombinase complex assay (250 pM FXa, 2.67 µM prothrombin), thrombin generation

## naturally occurring FXa inhibitor isolated from dilute leech saliva (DLS) of Hirudo medicinalis
Factor Xa [1]
  IC50, prothrombinase complex assay (thrombin generation): 190 pM
Factor Xa [2]
  Ki: 120 pM
Factor Xa [3]
  Ki: 72 pM
